Measured values taken from patent US12072338B2, “Pharmaceutical peptides for the treatment of inflammatory diseases” (PROTAGONISTS LTD., priority 2007, dated 2024).

Experiments:
[1] = target: T1, BCA-1 (Homo sapiens, UniProt O43927); experiment: Micro-array analysis of chemokine binding peptides: BCA-1
T1 construct: purchased 300-47
T1 sequence (O43927 23-109): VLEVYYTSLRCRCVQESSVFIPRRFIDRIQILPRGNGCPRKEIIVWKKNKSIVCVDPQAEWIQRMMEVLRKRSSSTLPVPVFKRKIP
Protocol: (§1) (1) Printing: Chemokine (CK) solution (in water) was serially diluted with Print Reagent (GenTel BioSurfaces USA) to final concentrations of 50 μg and 25 μg/ml. BSA/BSA-Biotin control solutions (in water) were diluted with Print Reagent to 100 μg/ml. Amplified stock of M13 phage control (M13KEgIII Cloning Vector, New England Biolabs, Cat.No.E8101S) was stored in Tris Buffered Saline (TBS; pH7.5, 4° C.) and diluted with Print Reagent to the working titre (10^8 pfu/μl). An automated spotting robot (16 pin print tool, 0.4 mm head; BioRobotics, UK) was used to print the CK/BSA control/M13 control, 5 repeats per sample (CK 25 μg/ml and 50 μg/ml; BSA 100 μg/ml; M13 20 μl), on PATH Protein Microarray Slides (GenTel, Prod.No. 2-1005/-1025) at […], and 50-70% relative humidity. Printed micro-array slides were stored at Room Temperature (RT) or 4° C. for at least 24 h before use.
(§2) (2) Blocking: Block Buffer (500 μl/partition; PATHblock, GenTel, Prod.No. 2-1014) was applied to the slide for 1 hour at room temp (RT). After removal of Block Buffer, the slide was air dried for 25 minutes;
(§3) (3) Phage Presented Peptide Binding: Amplified recombinant phage stock was stored in TBS and diluted with Wash Buffer to working titer (10^7 pfu/μl). Recombinant phage suspension (300 μl) was applied per partition and incubated at RT for 1 hour with gentle agitation.
(§4) (4) First Washing: The slides were washed twice with Wash Buffer 300 μl/partition).
(§5) (5) Primary Antibody (Ab) Labeling: The slides were incubated with the Primary Ab (1 mg/ml diluted ×2500 (Wash Reagent), 300 μl; Mouse Anti-M13 monoclonal Ab; Amersham Biosciences, UK; Product Code 27-9420-01) for 45 minutes at RT.
(§6) (6) Second Washing: The slides were washed twice with Wash Buffer (300 μl/partition).
(§7) (7) Secondary Ab Labeling: The slides were incubated with Secondary Ab (1.5 mg/ml diluted ×5000 (Wash Reagent), 300 μl; Cy3-conjugated AffiniPure Goat Anti-Mouse IgG; Jackson ImmunoReserch Labs, USA; Product Code 115-165-062).
(§8) (8) Third Washing: The slides were washed twice with Wash Buffer (300 μl/partition).
(§9) (9) Rinse: the slides were rinsed twice with Rinse Buffer (PATHrinse, GenTel, Prod.No. 2-1018) then dried well.
(§10) (10) Scanning: The peptide-bound, labeled slide was scanned (Laser Intensity 80%, Gain 80%, Resolution 10 μm) with a ScanArray Life Scanner (Packard BioChip Technologies, USA).
(§11) (11) Analysis: Quantitative analysis of micro-array was performed by the SpotReader program of Niles Scientific (USA) and presented as Relative Fluorescence (RF) as a function of CK concentration. Micro-array readout (Cy3 fluorescence) was quantified to determine the relative binding affinities of a CBP for the CKs and by inference, the specificity of the CBP for binding to a CK.

[2] = target: T2, I-TAC (Homo sapiens, UniProt O14625); experiment: Micro-array analysis of chemokine binding peptides: I-TAC; details: limit = start of the upper 75% of that peptide's response range
T2 construct: purchased 300-46
T2 sequence (O14625 22-94): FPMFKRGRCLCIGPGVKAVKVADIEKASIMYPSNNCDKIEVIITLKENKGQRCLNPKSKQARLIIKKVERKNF
Protocol: as §1, §2, §3, §4, §5, §6, §7, §8, §9, §10, §11

[3] = target: T3, Exodus-2 (Homo sapiens, UniProt O00585); experiment: Micro-array analysis of chemokine binding peptides: Exodus-2
T3 construct: purchased 300-35
T3 sequence (O00585 24-134): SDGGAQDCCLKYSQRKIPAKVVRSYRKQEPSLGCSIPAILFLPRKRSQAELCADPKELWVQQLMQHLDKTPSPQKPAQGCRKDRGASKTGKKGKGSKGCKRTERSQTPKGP
Protocol: as §1, §2, §3, §4, §5, §6, §7, §8, §9, §10, §11

[4] = target: T4, SDF1-β (Homo sapiens, UniProt P48061); experiment: Micro-array analysis of chemokine binding peptides: SDF1-β
T4 construct: purchased 300-28b
T4 sequence (P48061 22-93): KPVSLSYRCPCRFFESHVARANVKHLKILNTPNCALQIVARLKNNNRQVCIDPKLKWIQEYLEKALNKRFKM
Protocol: as §1, §2, §3, §4, §5, §6, §7, §8, §9, §10, §11

[5] = target: T5, IP-10 (Homo sapiens, UniProt P02778); experiment: Micro-array analysis of chemokine binding peptides: IP-10; details: limit = start of the upper 75% of that peptide's response range
T5 construct: purchased 300-12
T5 sequence (P02778 22-98): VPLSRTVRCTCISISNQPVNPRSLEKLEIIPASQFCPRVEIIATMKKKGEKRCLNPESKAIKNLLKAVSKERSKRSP
Protocol: as §1, §2, §3, §4, §5, §6, §7, §8, §9, §10, §11

[6] = target: T6, SDF1-α (Homo sapiens, UniProt P48061); experiment: Micro-array analysis of chemokine binding peptides: SDF1-α
T6 construct: purchased 300-28a
T6 sequence (P48061 22-89 limits assumed): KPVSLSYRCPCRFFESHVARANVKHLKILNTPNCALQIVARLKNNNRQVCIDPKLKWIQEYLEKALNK
Protocol: as §1, §2, §3, §4, §5, §6, §7, §8, §9, §10, §11

[7] = target: T7, C-TAC (Homo sapiens, UniProt Q9Y4X3); experiment: Micro-array analysis of chemokine binding peptides: C-TAC
T7 construct: purchased 300-54
T7 sequence (Q9Y4X3 25-112): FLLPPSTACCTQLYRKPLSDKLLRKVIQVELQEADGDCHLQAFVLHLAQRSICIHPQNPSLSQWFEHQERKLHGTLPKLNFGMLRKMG
Protocol: as §1, §2, §3, §4
(5) Primary Antibody (Ab) Labeling: The slides were incubated with the Primary Ab (1 mg/ml diluted ×2500 (Wash Reagent), 300 μl; Mouse Anti-M13 monoclonal Ab; Amersham Biosciences, UK; Product Code 27-9420-01) for 45 minutes at RT. […]
as §11

[8] = target: T8, TECK (Homo sapiens, UniProt O15444); experiment: Micro-array analysis of chemokine binding peptides: TECK
T8 construct: purchased 300-45
T8 sequence (O15444 24-150): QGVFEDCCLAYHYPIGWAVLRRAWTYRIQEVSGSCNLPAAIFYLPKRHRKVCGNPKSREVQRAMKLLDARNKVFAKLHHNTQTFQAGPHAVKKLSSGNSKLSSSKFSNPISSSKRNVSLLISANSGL
Protocol: as §1, §2, §3, §4, §5, §6, §7, §8, §9, §10, §11

[9] = target: T9, Eotaxin 3 (Homo sapiens, UniProt Q9Y258); experiment: Micro-array analysis of chemokine binding peptides: Eotaxin 3; details: limit = start of the upper 75% of that peptide's response range
T9 construct: purchased 300-48
T9 sequence (Q9Y258 24-94): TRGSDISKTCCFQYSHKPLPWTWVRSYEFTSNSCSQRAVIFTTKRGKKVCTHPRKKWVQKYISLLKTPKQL
Protocol: as §1, §2, §3, §4, §5, §6, §7, §8, §9, §10, §11

binding to BCA-1, stated in words [1]: bound
binding to I-TAC with relatively high affinity (Relative Fluorescence Units) [2]: > 10,000 RFU
binding to Exodus-2, stated in words [3]: bound
binding to SDF1-β, stated in words [4]: bound
binding to IP-10 with relatively high affinity (Relative Fluorescence Units) [5]: > 10,000 RFU
binding to SDF1-α, stated in words [6]: bound
binding to C-TAC, stated in words [7]: bound
binding to TECK, stated in words [8]: bound
binding to Eotaxin 3 with relatively high affinity (Relative Fluorescence Units) [9]: > 10,000 RFU
Substance: NAMCK (listed as Homo sapiens) [Ph-p8.11]
